The values below come from patent US20220056104A1 (Janssen / Centocor, published 2022).

B1: TL1W100 (His-TEV-TL1A S176L) (ligand)
chain: HHHHHHENLYFQGLKGQEFAPSHQQVYAPLRADGDKPRAHLTVVRQTPTQHFKNQFPALHWEHELGLAFTKNRMNYTNKFLLIPESGDYFIYSQVTFRGMTSECSEIRQAGRPNKPDLITVVITKVTDSYPEPTQLLMGTKSVCEVGSNWFQPIYLGAMFSLQEGDKLMVNVSDISLVDYTKEDKTFFGAFLL
notes: also called TL1W100 (S176L)
B2: TL1W112 (His-TEV-TL1A P189F) (ligand)
chain: B1 chain with L118S, P131F
notes: also called TL1W112 (P189F)
B3: TL1W118 (His-TEV-TL1A S206A) (ligand)
chain: B1 chain with L118S, S148A
notes: also called TL1W118 (S206A)
B4: TL1W102 (His-TEV-TL1A S176K) (ligand)
chain: B1 chain with L118K
notes: also called TL1W102 (S176K)
B5: TL1W131 (His-TEV-TL1A Y238E) (ligand)
chain: B1 chain with L118S, Y180E
notes: also called TL1W131 (Y238E)
B6: TL1W132 (His-TEV-TL1A T239A) (ligand)
chain: B1 chain with L118S, T181A
notes: also called TL1W132 (T239A)
B7: TL1W123 (His-TEV-TL1A N207S) (ligand)
chain: B1 chain with L118S, N149S
notes: also called TL1W123 (N207S)
B8: TL1W115 (His-TEV-TL1A T192F) (ligand)
chain: B1 chain with L118S, T134F
notes: also called TL1W115 (T192F)
B9: TL1W120 (His-TEV-TL1A S206K) (ligand)
chain: B1 chain with L118S, S148K
notes: also called TL1W120 (S206K)
B10: TL1W107 (His-TEV-TL1A D186Y) (ligand)
chain: B1 chain with L118S, D128Y
notes: also called TL1W107 (D186Y)
B11: TL1W116 (His-TEV-TL1A T192K) (ligand)
chain: B1 chain with L118S, T134K
notes: also called TL1W116 (T192K)
B12: TL1W129 (His-TEV-TL1A Y238K) (ligand)
chain: B1 chain with L118S, Y180K
notes: also called TL1W129 (Y238K)
B13: TL1W119 (His-TEV-TL1A S206F) (ligand)
chain: B1 chain with L118S, S148F
notes: also called TL1W119 (S206F)
B14: TL1W117 (His-TEV-TL1A T192E) (ligand)
chain: B1 chain with L118S, T134E
notes: also called TL1W117 (T192E)
B15: TL1W114 (His-TEV-TL1A T192A) (ligand)
chain: B1 chain with L118S, T134A
notes: also called TL1W114 (T192A)
B16: TL1W110 (His-TEV-TL1A S187K) (ligand)
chain: B1 chain with L118S, S129K
notes: also called TL1W110 (S187K)
B17: TL1W113 (His-TEV-TL1A P189S) (ligand)
chain: B1 chain with L118S, P131S
notes: also called TL1W113 (P189S)
B18: TL1W104 (His-TEV-TL1A T185L) (ligand)
chain: B1 chain with L118S, T127L
notes: also called TL1W104 (T185L)
B19: TL1W127 (His-TEV-TL1A Y238A) (ligand)
chain: B1 chain with L118S, Y180A
notes: also called TL1W127 (Y238A)
B20: TL1W125 (His-TEV-TL1A N207E) (ligand)
chain: B1 chain with L118S, N149E
notes: also called TL1W125 (N207E)
B21: TL1W124 (His-TEV-TL1A N207K) (ligand)
chain: B1 chain with L118S, N149K
notes: also called TL1W124 (N207K)
B22: TL1W111 (His-TEV-TL1A S187D) (ligand)
chain: B1 chain with L118S, S129D
notes: also called TL1W111 (S187D)
B23: TL1W121 (His-TEV-TL1A S206E) (ligand)
chain: B1 chain with L118S, S148E
notes: also called TL1W121 (S206E)
B24: TL1W106 (His-TEV-TL1A T185D) (ligand)
chain: B1 chain with L118S, T127D
notes: also called TL1W106 (T185D)
B25: TL1W103 (His-TEV-TL1A T185A) (ligand)
chain: B1 chain with L118S, T127A
notes: also called TL1W103 (T185A)
B26: TL1W126 (His-TEV-TL1A F209W) (ligand)
chain: B1 chain with L118S, F151W
notes: also called TL1W126 (F209W)
B27: TL1W105 (His-TEV-TL1A T185N) (ligand)
chain: B1 chain with L118S, T127N
notes: also called TL1W105 (T185N)

Positions count from the first letter of the chain named. In names and notes the source's numbering stands.

One assay concerns the target T1, Recombinant DR3-Fc (R&D Systems, cat. #943-D3) (UniProt Q93038 25-199, limits assumed).
T1 construct: dimeric MW~92 kDa; also called DR3 receptor; Fc-DR3; not shown: Fc part of the bought fusion
T1 sequence (looked up): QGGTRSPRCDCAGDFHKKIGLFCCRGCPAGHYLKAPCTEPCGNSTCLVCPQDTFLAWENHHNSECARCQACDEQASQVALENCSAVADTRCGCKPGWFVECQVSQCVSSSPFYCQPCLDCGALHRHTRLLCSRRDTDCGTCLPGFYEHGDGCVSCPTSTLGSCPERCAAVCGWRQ
The experiment in a line: ELISA, DR3-Fc immobilized. How it is done: All ELISA-based measurements were collected in triplicate, and error values report the standard error between measurements. Recombinant DR3-Fc (R&D Systems, cat. #943-D3), dimeric MW˜92 kDa, was non-specifically immobilized onto plates (Nunc maxisorp, cat. #436110) in 100 μL DR3-Fc, diluted to 10 μg/mL onto a 96-well White Maxisorp plate (Nunc, cat #436110) (O/N, 4° C.). Plates were block for 1 hour at room temperature with 250 μl/well of casein buffer and blocking buffer was removed. 50 μL of TL1A variants were diluted in StartingBlock PBS (Thermo Fisher Scientific), at 25 μg/mL, diluting 3× over each well, according to the plate map description for 20160623) per well on a 96-well White Maxisorp plate (Nunc, cat #: 436110) (overnight at 4° C.).
Plates were washed three times with TBST. 100 μl/well polyclonal rabbit anti-human TL1A-biotin antibody (diluted 1:1000 in Starting Block PBS) was added and plates were incubated for 1 hour at room temperature with shaking at 150 rpm. TL1A-biotin antibody was removed and 100 μl/well streptavidin-HRP conjugate (diluted 1:10,000 in Starting Block PBS) was added to plates. Plates were incubated for 1 hour at room temperature with shaking at 150 rpm. Plates were washed three times with TBST. 100 μl/well POD Chemiluminescence substrate (Roche, cat #: 11582950001) was added immediately prior to reading plate luminescence using a Molecular Devices M5 plate reader with a delay setting of 100 ms.
Variants of TL1A were generated and tested for binding to DR3 and DcR3 by ELISA as described.
Take B1: the concentration giving a half-maximal response (EC50) worked out at 324 nM and the “Rel EC50” value is 12.4 ratio (head: nM).

For B2, the EC50 came out at 202 nM and the “Rel EC50” value was 7.7 ratio (head: nM).

Take B3: the EC50 was found to be 41.7 nM and the “Rel EC50” value was 1.6 ratio (head: nM).

Consider B4, for which the EC50 came out at 182 nM and the “Rel EC50” value is 6.9 ratio (head: nM).

Consider B5, for which the EC50 was found to be 300 nM and the “Rel EC50” value is 11.5 ratio (head: nM).

For the molecule B6, the EC50 stood at 144 nM and the “Rel EC50” value was 5.5 ratio (head: nM).

As for B7, the EC50 was found to be 26.8 nM and the “Rel EC50” value was 1 ratio (head: nM).

For B8, the EC50 was found to be 14.2 nM and the “Rel EC50” value is 0.5 ratio (head: nM).

B9: the EC50 came out at 114 nM and the “Rel EC50” value is 4.4 ratio (head: nM).

On to B10, for which the half-maximal effective concentration (EC50) is 63.8 nM and the “Rel EC50” value is 2.4 ratio (head: nM).

Regarding B11, the half-maximal effective concentration (EC50) came out at 77 nM and the “Rel EC50” value is 2.9 ratio (head: nM).

With B12, the 50% effective concentration (EC50) was 446 nM and the “Rel EC50” value is 17 ratio (head: nM).

On to B13, for which the EC50 was 87.5 nM and the “Rel EC50” value is 3.3 ratio (head: nM).

As for B14, the EC50 was determined as 113 nM and the “Rel EC50” value is 4.3 ratio (head: nM).

As for B15, the EC50 came out at 23.3 nM and the “Rel EC50” value is 0.9 ratio (head: nM).

Consider B16, for which the concentration giving a half-maximal response (EC50) turned out to be 33.7 nM and the “Rel EC50” value is 1.3 ratio (head: nM).

In the case of B17, the 50% effective concentration (EC50) worked out at 1000 nM and the “Rel EC50” value is 38.2 ratio (head: nM).

Take B18: the EC50 was 49.4 nM and the “Rel EC50” value is 1.9 ratio (head: nM).

With B19, the EC50 was 4620 nM and the “Rel EC50” value is 176 ratio (head: nM).

For the molecule B20, the EC50 was determined as 506 nM and the “Rel EC50” value was 19.3 ratio (head: nM).

Consider B21, for which the concentration for a half-maximal effect (EC50) was found to be 110 nM and the “Rel EC50” value was 4.2 ratio (head: nM).

In the case of B22, the concentration giving a half-maximal response (EC50) came out at 44.2 nM and the “Rel EC50” value was 1.7 ratio (head: nM).

Consider B23, for which the concentration giving a half-maximal response (EC50) came to 105 nM and the “Rel EC50” value is 4 ratio (head: nM).

With B24, the 50% effective concentration (EC50) was determined as 124 nM and the “Rel EC50” value is 4.7 ratio (head: nM).

On to B25, for which the EC50 was found to be 57.9 nM and the “Rel EC50” value is 2.2 ratio (head: nM).

As for B26, the EC50 stood at 56.8 nM and the “Rel EC50” value was 2.2 ratio (head: nM).

Regarding B27, the EC50 was found to be 180 nM and the “Rel EC50” value is 6.9 ratio (head: nM).

A further assay has as its target T2, DcR3 (UniProt O95407 30-300, limits assumed).
T2 construct: the construct is not described; also called decoy receptor DcR3; TNFRSF6B
T2 sequence (looked up): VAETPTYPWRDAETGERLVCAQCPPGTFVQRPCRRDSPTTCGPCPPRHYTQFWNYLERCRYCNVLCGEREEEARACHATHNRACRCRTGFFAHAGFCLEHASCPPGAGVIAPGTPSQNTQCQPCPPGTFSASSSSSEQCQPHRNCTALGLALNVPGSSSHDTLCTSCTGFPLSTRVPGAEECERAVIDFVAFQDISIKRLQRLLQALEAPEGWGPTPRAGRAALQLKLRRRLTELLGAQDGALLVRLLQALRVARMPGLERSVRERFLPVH
The experiment in a line: ELISA, DcR3.
As for B1, the EC50 is 15 nM and the “Rel EC50” value is 3.3 ratio (head: nM).

Regarding B2, the EC50 stood at 66.1 nM and the “Rel EC50” value is 14.4 ratio (head: nM).

Consider B3, for which the 50% effective concentration (EC50) is 8.8 nM and the “Rel EC50” value was 1.9 ratio (head: nM).

For the molecule B4, the midpoint of the response, the EC50, lay at 29.2 nM and the “Rel EC50” value was 6.3 ratio (head: nM).

With B5, the concentration giving a half-maximal response (EC50) was found to be 6.6 nM and the “Rel EC50” value was 1.4 ratio (head: nM).

B6: the EC50 was determined as 27.2 nM and the “Rel EC50” value is 5.9 ratio (head: nM).

With B7, the EC50 is 8.6 nM and the “Rel EC50” value was 1.9 ratio (head: nM).

As to B8, the response was half-maximal at 10.6 nM (EC50) and the “Rel EC50” value is 2.3 ratio (head: nM).

B9: a half-maximal effect (EC50) was put at 91 nM and the “Rel EC50” value is 19.8 ratio (head: nM).

Consider B10, for which the 50% effective concentration (EC50) worked out at 6.2 nM and the “Rel EC50” value was 1.4 ratio (head: nM).

In the case of B11, the concentration for a half-maximal effect (EC50) came to 23.3 nM and the “Rel EC50” value is 5.1 ratio (head: nM).

Take B12: the half-maximal effective concentration (EC50) was 9 nM and the “Rel EC50” value is 2 ratio (head: nM).

With B13, the 50% effective concentration (EC50) worked out at 8.1 nM and the “Rel EC50” value was 1.8 ratio (head: nM).

In the case of B14, the EC50 stood at 12 nM and the “Rel EC50” value is 2.6 ratio (head: nM).

Consider B15, for which the concentration giving a half-maximal response (EC50) was 10 nM and the “Rel EC50” value is 2.2 ratio (head: nM).

With B16, the EC50 worked out at 15.8 nM and the “Rel EC50” value was 3.4 ratio (head: nM).

As for B17, a half-maximal effect (EC50) was put at 19.8 nM and the “Rel EC50” value was 4.3 ratio (head: nM).

Regarding B18, it took 19.3 nM to reach a half-maximal effect (EC50) and the “Rel EC50” value was 4.2 ratio (head: nM).

Take B19: the EC50 was 8.9 nM and the “Rel EC50” value is 1.9 ratio (head: nM).

On to B20, for which the 50% effective concentration (EC50) came out at 9.8 nM and the “Rel EC50” value was 2.1 ratio (head: nM).

With B21, a half-maximal effect (EC50) was put at 15.4 nM and the “Rel EC50” value was 3.4 ratio (head: nM).

Take B22: the response was half-maximal at 16.7 nM (EC50) and the “Rel EC50” value is 3.6 ratio (head: nM).

In the case of B23, the EC50 is 17.2 nM and the “Rel EC50” value was 3.7 ratio (head: nM).

For B24, the 50% effective concentration (EC50) was determined as 79.9 nM and the “Rel EC50” value was 17.4 ratio (head: nM).

In the case of B25, the EC50 is 11.5 nM and the “Rel EC50” value is 2.5 ratio (head: nM).

For the molecule B26, the EC50 was 13.7 nM and the “Rel EC50” value was 3 ratio (head: nM).

Regarding B27, the EC50 turned out to be 11.3 nM and the “Rel EC50” value is 2.4 ratio (head: nM).
